In a protein production outcome set (Wang et al. 2014):

Assay: label from the status in PepcDB records

## MKKMKTLTLFLSLLFSFPFVLSAQMVGETLQKVSAALDNRQWDQAVTLFRQAVNTNVEKAEMFYWTGVDKSLEVSSRIGRELAAYYKKSRSYDKAYLFYKELLQKSPNDVNCLVSCAEMEVCRGRESEALETYRKVLSLDADNLAANIFIGNYLYLKAEREKKQLEADYKKISAPTRMQYARYRDGLSRVMSTGYGKAREYLQKVISQFPSTEAQKTLERIKLIEKEVNR
  protein production: failed

## MAKQATTSRLLPESMDNSGEFWLHAFESLVADLPEPAFVVDADGDITHWNQAVENILGLPASEAVGMNAYDVFGTEGQDETLAQEVIRTGEPVREDEFRSAERPDGTMAHARAVAIPLMGPGGDAIGALELLIDFSDIVEQREALQSLQSQMATDVESAVGEIGDSAAAVTEQSDDIKQMAGEQSENLDEVQSEVSGFSATVEEIASSAEEVSSQSGEARELAEESVETAEETIERVEDATESAEQVASDSTELRGHIEEIDEFVEVINDIADQTNMLALNANIEAARSNSDSDGFAVVADEIKELADESKQHADEVERIVGEVREMADSTAENVEETTDAIQQALTDIETVLDNQQAIVDATSETEQGIGEVAAATDDQAASAEEIASMIDEIAQRAAEVSESIDELADANETQHRLAQDLEENVERVERRLAEIME
  protein production: failed

## MQYQGRSKRSKTGARLRPRSKKSKSELGREPTETTVGEPRFRTVDVRGDAEKVRVLSTNVVNVATDSGAERATIEDVSANDANPNYARRNIITKGAIIETDAGTARVTSRPGQDGQVNATRVDE
  protein production: failed

## MKLKGVDNKILSNIFSLLSVQGALYIIPLITLPYLVRTLGVENYGVFGFSLAIVSYMSLIVDYGFNITATKTGAEIRYDKNKLSKLFFEILYSKLFMFIICSLSSILFSFFVENNIFNKDIIFVLMFTVFSQVIFPIWFFQAIEELKLVATLNFISKSLSVPLIFILINDEKDLIKLAVIHAITTIIPAIYSVYYIHIRKLVFFYKPSLNSIVSQIKNGWHIFLSGISISFYSTIVTVFLGIFSGATETGYFVAADRLRKAVQGISGPISQSFYPRINSLINTNKKSAINLIKVLYKIQFIVTFILSSLLFIFSEEIVEVLYGNGFVQSIVILKVLSYVPFFVSMSNASGICVIVSFGFNRLFSKIMMFSGGVGVALSFLLINSYGAIGSGLSILISEFIIAIIMIYFVIKLKLLKQ
  protein production: failed

## MVSTLGSDTFTSISAHDLHGKLGNIHLIDVRENDDFKEGHIPTSRNIPMDILLKEPEKYINKTDEYYIVCQAGVKSEKTCKELWSKGYKVINIKDGTDSYKQPLER
  protein production: failed

## MARYHIETYGCTSNRGESRDIERRLRDAGHHKVETAADADVAILNTCTVVEKTERNMLRRAKELADETADLIVTGCMALAQGEAFADADVDAQVLHWDDVPEAVTNGECPTTTPDAEPILDGVVGILPIARGCMSNCSYCITKQATGRVDSPPVEENVEKARALVHAGAKEIRITGQDTGVYGWDTGERKLPELLERIATEIEGEFRVRVGMANPGGVHGIREELAAVFAEHDEIYNFLHAPVQSGSDDVLADMRRQHEVSQYRDIVETFNDTLGEWTLSTDFIVGFPTEDDDDHEASMDLLRETRPEKINVTRFSKRPGTDAAELKGLGGQTKKDRSKAMTELKMDVVGEAHESMVGTRRDVLVVEEGTGDSVKCYDGAYRQVIVQNATDHGLEPGDFATVEVTSHQTVYAFAEPVDAAAVDDGPAETTAD
  protein production: failed

## MSTTDNAFSATLEPIDTPKTTLKQRWWHIMDNWKVGIVPLPLFLLAGGLIALDCLGGKLPSDIVVMVATLAFFGFACGEFGKRLPVLGKLGAAAICATFIPSALVHYGLLPDVVIESTTKFYKSTNILYLYICCIIVGSIMSMNRTTLIQGFLKIFFPMLCGEVVGMLVGIGVGTLLGMEPFQVFFFIVLPIMAGGVGEGAIPLSMGYAALMHMEQGVALGRVLPMVMLGSLTAIVISGCLNQLGKRFPHLTGEGQLMPNRSHETRSLSESEGVSGKTDVGTLASGALLAVLLYMMGMLGHKLIGLPAPVGMLFLAVLLKLANVVSPRLQEGSQMVYKFFRTAVTYPILFAVGVAITPWQELVNAFTLTNLLVIVSTVSALVATGFLVGKKIGMHPIDVAIVSCCQSGQGGTGDVAILTAGNRMSLMPFAQIATRIGGAINVSLGLLFLSHYLA
  protein production: failed

## GTLQDGAVDWGVRRTFREYVTGDIAHGEWALTAGAQDGGALFRFPGGEGTYEDGDLNAAFRGTVRFTGAHGLDLSLGNVRTVVEDGRGTLYADVTSPDVKEAKVPLVTFTAGEPKPAGGLVKVTEAPAKLTARGAKAFGGMYRAGTEMDPVSLAVAL
  protein production: failed
